According to patent US10590182B2, “Binding-triggered transcriptional switches and methods of use thereof” (The Regents of the University of California, priority 2015, dated 2020):

Key:
[1] = system: gamma secretase; assay: Chimeric Notch receiver cell activation by CD19 sender cells with or without gamma secretase inhibitor DAPT; type: cell-based, mouse; conditions: sender cells expressing CD19, 1 mM DAPT
Text: DAPT is a gamma secretase inhibitor. The data are expressed as GFP^+ “receiver” cells.
(FIG. 86A) Mouse fibroblasts (L929 line) with anti-CD19/tTA synNotch are cultivated with sender cells expressing Delta, or CD19, or CD19 in the presence of the gamma-secretase inhibitor DAPT. FACS plots of the resulting GFP intensity in receiver cells are shown.

[2] = system: HCT116 colon cancer cells; assay: Sensitivity of cancer cell line to recombinant TRAIL; type: cell-based
Procedure: (§1) The cells were then harvested and stained with the live/dead stain, SYTOX Blue (Thermo Scientific # S34857) and the fraction of dead cells was determined by flow cytometry on a BD LSR II.

[3] = system: K562 cells; assay: as above; type: cell-based
Procedure: as §1

`C[C@H](NC(=O)Cc1cc(F)cc(F)c1)C(=O)NC(C(=O)OC(C)(C)C)c1ccccc1` (stereo partly drawn) [DAPT] was tested, and the “GFP+ receiver cells” value [1] was “at control, untreated levels”.

B1: soluble TRAIL: recombinant TRAIL, an inducer of apoptosis and a cancer therapeutic (protein, UniProt P50591 39-281, looked up)
extracellular domain: TNELKQMQDKYSKSGIACFLKEDDSYWDPNDEESMNSPCWQVKWQLRQLVRKMILRTSEETISTVQEKQQNISPLVRERGPQRVAAHITGTRGRSNTLSSPNSKNEKALGRKINSWESSRSGHSFLSNLHLRNGELVIHEKGFYYIYSQTYFRFQEEIKENTKNDKQMVQYIYKYTSYPDPILLMKSARNSCWSKDAEYGLYSIYQGGIFELKENDRIFVSVTNEHLIDMDHEASFFGAFLVG
modifications: extracellular domain
notes: recombinant TRAIL, an inducer of apoptosis and a cancer therapeutic
With B1 the cell killing [2] was “effective at killing” and the induction of apoptosis [3] was “does not induce apoptosis even at high doses”.
